Results published in paper PMC6713497, “Dimeric structures of quinol-dependent nitric oxide reductases (qNORs) revealed by cryo–electron microscopy” (Science Advances, 2019).

Biological target: the molecule itself
Experiment: cryo-EM structure; single-particle cryo-EM of detergent-solubilised qNOR-BRIL (50 mM tris, 150 mM NaCl, 0.05% DTM; wild type pH 7.0 at 3 mg/ml, Val495Ala pH 7.5 at 5 mg/ml), C2 symmetry imposed

B1: AxqNOR-BRIL (quinol-dependent nitric oxide reductase from Alcaligenes xylosoxidans fused with apocytochrome b562) (enzyme)
chain: not shown
- stoichiometry N: 2
